B1: RRAS1, mGppNHp-bound (natural protein, human, UniProt P10301 1-218, looked up)
chain: MSSGAASGTGRGRPRGGGPGPGDPPPSETHKLVVVGGGGVGKSALTIQFIQSYFVSDYDPTIEDSYTKICSVDGIPARLDILDTAGQEEFGAMREQYMRAGHGFLLVFAINDRQSFNEVGKLFTQILRVKDRDDFPVVLVGNKADLESQRQVPRSEASAFGASHHVAYFEASAKLRLNVDEAFEQLVRAVRKYQEQELPPSPPSAPRKKGGGCPCVLL
notes: human RRAS1 (R-Ras); Loaded with mGppNHp; That the RAS proteins are the ones made with pGEX is surmised
B2: RRAS2 (or TC21), mGppNHp-bound (natural protein, human, UniProt P62070 1-204, looked up)
chain: MAAAGWRDGSGQEKYRLVVVGGGGVGKSALTIQFIQSYFVTDYDPTIEDSYTKQCVIDDRAARLDILDTAGQEEFGAMREQYMRTGEGFLLVFSVTDRGSFEEIYKFQRQILRVKDRDEFPMILIGNKADLDHQRQVTQEEGQQLARQLKVTYMEASAKIRMNVDQAFHELVRVIRKFQEQECPPSPEPTRKEKDKKGCHCVIF
notes: human RRAS2 (TC21); Loaded with mGppNHp; That the RAS proteins are the ones made with pGEX is surmised; also called RRAS2-mGppNHp

How the values were obtained:
Experiment in all cases: fluorescence polarisation; MBP-tagged effector domain (0.05-100 μM) titrated to 1 μM RAS-mGppNHp; 50 mM Tris/HCl pH 7.5, 100 mM NaCl, 5 mM MgCl2, 3 mM dithiothreitol, 25°C; quadratic ligand binding equation
Settings in all cases: both partners purified
HRAS, mGppNHp-bound = molecular target: T1, HRAS, mGppNHp-bound (human, UniProt P01112 1-189)
T1 construct: human HRAS; Loaded with the fluorescent non-hydrolysable GTP analog mant-GppNHp (mGppNHp); That the RAS proteins are the ones made with pGEX is surmised

[1] = molecular target: B2
NRAS, mGppNHp-bound = molecular target: T2, NRAS, mGppNHp-bound (human, UniProt P01111 1-189)
T2 construct: human NRAS; Loaded with mGppNHp; That the RAS proteins are the ones made with pGEX is surmised

RRAS1, mGppNHp-bound = molecular target: B1
[2] = molecular target: T3, RAS binding (RB) domain of PI3Kα, MBP fusion (human, UniProt P42336 169-301)
T3 construct: human PI3Kα, RB domain, aa 169-301; also called PI3Kα-RB
T3 sequence (P42336 169-301): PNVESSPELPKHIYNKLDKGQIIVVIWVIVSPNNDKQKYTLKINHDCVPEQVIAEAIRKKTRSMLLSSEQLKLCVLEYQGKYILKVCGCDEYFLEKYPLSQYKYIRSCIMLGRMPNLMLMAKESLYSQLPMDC

T2 sequence (P01111 whole entry): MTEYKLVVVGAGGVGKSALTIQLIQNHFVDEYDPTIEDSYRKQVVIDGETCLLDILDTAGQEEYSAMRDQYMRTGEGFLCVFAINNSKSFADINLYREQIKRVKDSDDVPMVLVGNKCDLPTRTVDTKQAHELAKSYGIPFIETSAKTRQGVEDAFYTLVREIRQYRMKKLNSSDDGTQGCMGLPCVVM

Kd (HRAS, mGppNHp-bound) [µM] | Kd [1] [µM] | Kd (NRAS, mGppNHp-bound) [µM] | Kd (RRAS1, mGppNHp-bound) [µM] | Kd [2] [µM] | Binder
0.238 | 10 | 0.442 | 11.5 |  | RAS association (RA) domain of RASSF5, MBP fusion (domain or fragment, human, UniProt Q8WWW0 200-358, looked up, human RASSF5, RA domain, aa 200-358; also called RASSF5-RA) EETQRPPTLQEIKQKIDSYNTREKNCLGMKLSEDGTYTGFIKVHLKLRRPVTVPAGIRPQSIYDAIKEVNLAATTDKRTSFYLPLDAIKQLHISSTTTVSEVIQGLLKKFMVVDNPQKFALFKRIHKDGQVLFQKLSIADRPLYLRLLAGPDTEVLSFV
 |  |  |  | 11 | B1
 | 145 |  | 114 |  | RAS association (RA) domain of PLCε, MBP fusion (domain or fragment, human, UniProt Q9P212 2130-2240, looked up, human PLCε, RA domain (RA2), aa 2130-2240; also called PLCε-RA2) LSSEEESFFVQVHDVSPEQPRTVIKAPRVSTAQDVIQQTLCKAKYSYSILSNPNPSDYVLLEEVVKDTTNKKTTTPKSSQRVLLDQECVFQAQSKWKGAGKFILKLKEQVQ
 |  |  |  | 18.1 | B2

— publication PMC5147862 (PLoS ONE, 2016)
